Numbering of substitutions follows the chain as printed.
B1: ALT04M1: herbicide tolerant protein, SEQ ID NO: 55; ALT04 with glycine to alanine at position 131 (protein)
chain: MSKRKVVLAEQGSFYIGGRTVTGPGKFDPSKPVIPYSNEGATFYINQMYVNFQAPVRPRGLPLVFWHGGGLTGHIWESTPDGRPGFQTLFVQDRHTVYTIDQPGRGRGNIPTFNGPFGQLEEESIVNTVTANSSKEGAWVRDRLGPAPGQFFENSQFPRGYEDNYFKEMGFSPSISSDEIVDAVVKLVTHIGPCVLVTHSASGVLGMRVATHAKNVRGIVAYEPATSIFPKGKVPEIPPLADKKSQIFPPFEIQESYFKKLAKIPIQFVFGDNIPKNPKSAYWFLDWWRVTRYAHSLSLEAINKLGGQASLLDLPTAGLRGNTHFPFTDRNNVQVASLLSDFLGKHGLDQ
modifications: the amino acid sequence of the ALT04M1
B2: ALT04M2: herbicide tolerant protein, SEQ ID NO: 59; ALT04 with serine to valine at position 133 (protein)
chain: B1 chain with A131G, S133V
modifications: the amino acid sequence of the ALT04M2
B3: ALT02M1: herbicide tolerant protein, SEQ ID NO: 23; ALT02 with glycine to alanine at position 140 (protein)
chain: METDNVELAQSKRKVVLAEQGSFYIGGRTVTGPGKFDPSKPVIPYSNEGATFYINQMYVNFQAPVRPRGLPLVFWHGGGLTGHIWESTPDGRPGFQTLFVQDRHTVYTIDQPGRGRGNIPTFNGPFGQLEEESIVNTVTANSSKEGAWVRDRLGPAPGQFFENSQFPRGYEDNYFKEMGFSPSISSDEIVDAVVKLVTHIGPCVLVTHSASGVLGMRVATHAKNVRGIVAYEPATSIFPKGKVPEIPPLADKKSQIFPPFEIQESYFKKLAKIPIQFVFGDNIPKNPKSAYWFLDWWRVTRYAHSLSLEAINKLGGQASLLDLPTAGLRGNTHFPFTDRNNVQVASLLSDFLGKHGLDQNESKLAAALE
modifications: the amino acid sequence of ALT02M1
B4: ALT02M2: herbicide tolerant protein, SEQ ID NO: 27; ALT02 with serine to valine at position 142 (protein)
chain: B3 chain with A140G, S142V
modifications: the amino acid sequence of the ALT02M2
B5: ALT02M3: herbicide tolerant protein, SEQ ID NO: 31; ALT02 mutated at positions 44, 45, 140, 142 and 146 (protein)
chain: B3 chain with P44R, Y45A, S142V, G146R
modifications: the amino acid sequence of the ALT02M3
B6: ALT03M1: herbicide tolerant protein, SEQ ID NO: 39; ALT03 with glycine to alanine at position 140 (protein)
chain: METDNVELAQSKRKVVLAEQGSFYIGGRTVTGPGKFDPSKPVIPYSNEGATFYINQMYVNFQAPVRPRGLPLVFWHGGGLTGHIWESTPDGRPGFQTLFVQDRHTVYTIDQPGRGRGNIPTFNGPFGQLEEESIVNTVTANSSKEGAWVRDRLGPAPGQFFENSQFPRGYEDNYFKEMGFSPSISSDEIVDAVVKLVTHIGPCVLVTHSASGVLGMRVATHAKNVRGIVAYEPATSIFPKGKVPEIPPLADKKSQIFPPFEIQESYFKKLAKIPIQFVFGDNIPKNPKSAYWFLDWWRVTRYAHSLSLEAINKLGGQASLLDLPTAGLRGNTHFPFTDRNNVQVASLLSDFLGKHGLDQNES
modifications: the amino acid sequence of the ALT03M1
B7: ALT03M2: herbicide tolerant protein, SEQ ID NO: 43; ALT03 with serine to valine at position 142 (protein)
chain: B6 chain with A140G, S142V
modifications: the amino acid sequence of the ALT03M2
B8: ALT03M3: herbicide tolerant protein, SEQ ID NO: 47; ALT03 mutated at positions 44, 45, 140, 142 and 146 (protein)
chain: B6 chain with P44R, Y45A, S142V, G146R
modifications: The amino acid sequence of the ALT03M3
B9: ALT02: ALT02 protein (369 amino acids), SEQ ID NO: 19; unmutated herbicide tolerant protein (protein)
chain: B3 chain with A140G
modifications: the amino acid sequence of ALT02

Experiment: not given
Type: biochemical
Conditions: not given
Protocol: (§1) Each reaction was timed beginning with the addition of reactive enzyme, and was terminated with 1 mL of dichloromethane. The organic phase after delamination was dehydrated with anhydrous sodium sulfate.
(§2) The above dehydrated reaction solution was blown dry with nitrogen and filtered by adding 1 mL of methanol, and 20 μL of the filtrate was subjected to liquid chromatography-mass spectrometry (LC-MS). High performance liquid chromatography (HPLC) conditions were as follows: mobile phase being methanol:water (80:20, V/V), Zorbax XDB-C18 chromatographic column (3.5 μm, 2.1×50 mm, Agilent, USA), column temperature being room temperature, UV detector, with a detection wavelength of 255 nm, a sample injection volume of 20 μL, and a flow rate of 0.25 mL/min. The primary ion mass spectrometry conditions were as follows: ion detection mode being multi-reactive ion detection; ion polarity being negative ion; ionization mode being electrospray ionization; a capillary voltage of 4000 volts; a dry gas temperature of 330° C., a flow rate of 10 L/min, an atomizing gas pressure of 35 psi, a collision voltage of 135 volts; and a mass scan range of 300-500 m/z. The secondary ion mass spectrometry conditions were as follows: a collision voltage of 90 volts; a mass scanning range of 30-400 m/z, and other conditions being the same as those of the primary ion mass spectrometry. It was identified by LC-MS that the metabolite of thifensulfuron-methyl was thiophene sulfonic acid, and the metabolite of metsulfuron-methyl, chlorimuron-ethyl, bensulfuron-methyl, sulfometuron-methyl or tribenuron-methyl was its corresponding sulfonic acid. The amount of the generated thiophene sulfonic acid (metabolite) was detected using high performance liquid chromatography (HPLC).

| Molecule | efficiency of degrading bensulfuron-methyl, fold of ALT04 [fold] | efficiency of degrading thifensulfuron-methyl, fold of ALT04 [fold] | efficiency of degrading bensulfuron-methyl, fold of ALT02 [fold] | efficiency of degrading thifensulfuron-methyl, fold of ALT02 [fold] | efficiency of degrading chlorimuron-ethyl, fold of ALT02 [fold] | efficiency of degrading metsulfuron-methyl, fold of ALT02 [fold] | efficiency of degrading bensulfuron-methyl, fold of ALT03 [fold] | efficiency of degrading thifensulfuron-methyl, fold of ALT03 [fold] | efficiency of degrading chlorimuron-ethyl, fold of ALT03 [fold] | efficiency of degrading chlorimuron-ethyl, fold of ALT04 [fold] |
| --- | --- | --- | --- | --- | --- | --- | --- | --- | --- | --- |
| B1 | 1.9 | 2.8 |  |  |  |  |  |  |  |  |
| B2 | 1.2 | 3.3 |  |  |  |  |  |  |  |  |
| B3 |  |  | 2.3 | 3.3 |  |  |  |  |  |  |
| B4 |  |  | 1.4 | 3.9 |  |  |  |  |  |  |
| B5 |  |  |  |  | 14.2 | 2.1 |  |  |  |  |
| B6 |  |  |  |  |  |  | 2.1 | 3.0 |  |  |
| B7 |  |  |  |  |  |  | 1.3 | 3.5 |  |  |
| B8 |  |  |  |  |  |  |  |  | 13.0 | 12.4 |

Same assay, conditions: not given

| Molecule | efficiency of degrading metsulfuron-methyl, fold of ALT03 [fold] | efficiency of degrading metsulfuron-methyl, fold of ALT04 [fold] |
| --- | --- | --- |
| B8 | 1.9 | 1.8 |

Same assay, conditions: 0.2 μg enzyme, 0.2 mM substrate, pH 7.0, 30° C., 20 min

| Molecule | specific enzyme activity, bensulfuron-methyl [µmol/min/mg] | specific enzyme activity, chlorimuron-ethyl [µmol/min/mg] | specific enzyme activity, metsulfuron-methyl [µmol/min/mg] | specific enzyme activity, thifensulfuron-methyl [µmol/min/mg] | specific enzyme activity, tribenuron-methyl [µmol/min/mg] |
| --- | --- | --- | --- | --- | --- |
| B1 | 3.5 | 9.4 | 2.0 | 80.9 | 2.8 |
| B2 | 2.2 | 8.1 | 1.1 | 95.4 | 9.7 |
| B3 | 4.1 | 10.9 | 2.3 | 94.4 | 3.3 |
| B9 | 1.8 | 2.8 | 2.1 | 28.8 | 1.9 |
| B4 | 2.5 | 9.5 | 1.3 | 111.3 | 11.3 |
| B5 | 0.7 | 40.3 | 4.4 | 18.7 | 3.5 |
| B6 | 3.7 | 9.9 | 2.1 | 85.4 | 2.9 |
| B7 | 2.3 | 8.6 | 1.1 | 100.7 | 10.3 |
| B8 | 0.6 | 36.5 | 4.0 | 16.9 | 3.1 |

Experiment: Degradation of sulfometuron-methyl by purified herbicide tolerant proteins (enzymatic activity, HPLC)
Type: biochemical
Conditions: 0.2 μg enzyme, 0.2 mM substrate, pH 7.0, 30° C., 20 min
Protocol: as §1, §2

| Molecule | specific enzyme activity, sulfometuron-methyl [µmol/min/mg] |
| --- | --- |
| B1 | 4.9 |
| B2 | 3.2 |
| B3 | 5.7 |
| B9 | 2.0 |
| B4 | 3.7 |
| B5 | 1.2 |
| B6 | 5.1 |
| B7 | 3.3 |
| B8 | 1.0 |

Reference: patent publication US12385058B2, “Herbicide tolerance protein, encoding gene thereof and use thereof” (Beijing Dabeinong Biotechnology Co., Ltd., priority 2018, dated 2025)
